Reference: patent publication US20250346668A1

What was measured:
[1] = biological target: Human CD3e/g protein (human) (UniProt P07766); assay: ELISA, coated hCD3e/g
[2] = biological target: Cynomolgus monkey CD3e/g protein (cynomolgus monkey); assay: ELISA, coated cyno CD3e/g
[3] = biological target: human CD3e/d protein (Sinobiological, CAT: CT038-H2508H-B) (human) (UniProt P07766); assay: ELISA, coated hCD3e/d

Substance | EC50 [1] | OD450 nm at 0.000853 nM [1] | OD450 nm at 0.0043 nM [1] | OD450 nm at 0.02 nM [1] | OD450 nm at 0.11 nM [1] | OD450 nm at 0.53 nM [1] | OD450 nm at 2.67 nM [1] | OD450 nm at 13.3 nM [1] | OD450 nm at 66.7 nM [1] | OD450 nm at 0.000853 nM [2] | OD450 nm at 0.0043 nM [2] | OD450 nm at 0.02 nM [2] | OD450 nm at 0.11 nM [2] | OD450 nm at 0.53 nM [2] | OD450 nm at 2.67 nM [2] | OD450 nm at 13.3 nM [2] | OD450 nm at 66.7 nM [2] | other results
OKT3 (antibody) | 2.95 nM | 0.07 OD450 nm | 0.08 OD450 nm | 0.09 OD450 nm | 0.17 OD450 nm | 0.47 OD450 nm | 0.8 OD450 nm | 1.21 OD450 nm | 1.53 OD450 nm | 0.04 OD450 nm | 0.04 OD450 nm | 0.04 OD450 nm | 0.04 OD450 nm | 0.04 OD450 nm | 0.03 OD450 nm | 0.25 OD450 nm | 0.26 OD450 nm | –
SP34 (antibody) | 0.64 nM | 0.18 OD450 nm | 0.1 OD450 nm | 0.15 OD450 nm | 0.38 OD450 nm | 1.45 OD450 nm | 3.1 OD450 nm | 3.29 OD450 nm | 3.23 OD450 nm | 0.12 OD450 nm | 0.2 OD450 nm | 0.19 OD450 nm | 0.5 OD450 nm | 1.83 OD450 nm | 3.41 OD450 nm | 3.57 OD450 nm | 3.55 OD450 nm | EC50 [3]: 1.51 nM; Emax (OD) [3]: 2.01 OD; OD450 nm at 0.00128 nM [3]: 0.05 OD450 nm; OD450 nm at 0.0064 nM [3]: 0.06 OD450 nm; OD450 nm at 0.032 nM [3]: 0.09 OD450 nm; OD450 nm at 0.16 nM [3]: 0.23 OD450 nm; OD450 nm at 0.8 nM [3]: 0.7 OD450 nm; OD450 nm at 4 nM [3]: 1.49 OD450 nm; OD450 nm at 20 nM [3]: 2.01 OD450 nm; OD450 nm at 100 nM [3]: 1.87 OD450 nm; EC50 [2]: 0.55 nM
mouse IgG (antibody) | – | 0.177 OD450 nm | 0.101 OD450 nm | 0.08 OD450 nm | 0.09 OD450 nm | 0.14 OD450 nm | 0.07 OD450 nm | 0.1 OD450 nm | 0.15 OD450 nm | 0.0698 OD450 nm | 0.101 OD450 nm | 0.07 OD450 nm | 0.07 OD450 nm | 0.06 OD450 nm | 0.07 OD450 nm | 0.07 OD450 nm | 0.08 OD450 nm | –
HIT3a (antibody) | 4.2 nM | 0.07 OD450 nm | 0.07 OD450 nm | 0.08 OD450 nm | 0.12 OD450 nm | 0.31 OD450 nm | 0.59 OD450 nm | 0.94 OD450 nm | 1.22 OD450 nm | 0.04 OD450 nm | 0.04 OD450 nm | 0.04 OD450 nm | 0.04 OD450 nm | 0.04 OD450 nm | 0.04 OD450 nm | 0.04 OD450 nm | 0.04 OD450 nm | –
